{"source": "paper PMC7959541", "key": {"[1]": {"molecular_target": "Cy5 labeled PDZ14 (engineered yeast SmF variant with a PDZ domain at its C-terminus, 14-mer) (Saccharomyces cerevisiae)", "experiment": "fluorescence burst analysis of two-colour confocal trajectories"}, "[2]": {"molecular_target": "Cy5 labeled PDZ14 (engineered yeast SmF variant with a PDZ domain at its C-terminus, 14-mer) (Saccharomyces cerevisiae)", "experiment": "dual-color fluorescence cross-correlation spectroscopy"}}}
{"substance": "Alexa 488 labeled KKETPV14 (engineered yeast SmF variant with the short peptide KKETPV at its C-terminus, 14-mer)", "values": [{"measurement": "stoichiometry N (KKETPV14:PDZ14)", "setting": "[1]", "result": 0.99}, {"measurement": "stoichiometry N (KKETPV14:PDZ14)", "setting": "[2]", "result": 1}]}
